Measurements reported in patent US20220298218A1 (ANTAG THERAPEUTICS, published 2022).
Where no end group is shown, it is not given here. [ ]: non-standard residue; d: D form. The star is where a group is joined. C16 diacid = O=C(O)CCCCCCCCCCCCCCC(=O)*; Aib = CC(C)(N)C(=O)O

T1: human GIP receptor (human, UniProt P48546 22-466)
T1 sequence (looked up): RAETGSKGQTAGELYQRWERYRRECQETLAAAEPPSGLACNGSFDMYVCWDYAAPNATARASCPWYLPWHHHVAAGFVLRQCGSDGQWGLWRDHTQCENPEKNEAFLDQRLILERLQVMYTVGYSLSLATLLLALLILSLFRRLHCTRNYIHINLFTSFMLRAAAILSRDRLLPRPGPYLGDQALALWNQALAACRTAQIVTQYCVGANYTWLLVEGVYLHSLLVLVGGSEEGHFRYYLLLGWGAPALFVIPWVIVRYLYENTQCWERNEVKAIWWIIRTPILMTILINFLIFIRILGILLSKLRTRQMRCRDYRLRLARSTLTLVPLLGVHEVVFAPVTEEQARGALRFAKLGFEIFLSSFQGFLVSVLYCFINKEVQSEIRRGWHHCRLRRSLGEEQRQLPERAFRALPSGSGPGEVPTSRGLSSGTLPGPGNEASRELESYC

B1: AT639 (peptide)
peptide: VETFISDYSIAMDKIK(C16 diacid)QQDFVNWLLAQKPSSGAPPPS-OH
modifications: N-terminus assumed
SMILES: CC[C@H](C)[C@H](NC(=O)[C@H](CO)NC(=O)[C@H](Cc1ccc(O)cc1)NC(=O)[C@H](CC(=O)O)NC(=O)[C@H](CO)NC(=O)[C@@H](NC(=O)[C@H](Cc1ccccc1)NC(=O)[C@@H](NC(=O)[C@H](CCC(=O)O)NC(=O)[C@@H](N)C(C)C)[C@@H](C)O)[C@@H](C)CC)C(=O)N[C@@H](C)C(=O)N[C@@H](CCSC)C(=O)N[C@@H](CC(=O)O)C(=O)N[C@@H](CCCCN)C(=O)N[C@H](C(=O)N[C@@H](CCCCNC(=O)CCCCCCCCCCCCCCC(=O)O)C(=O)N[C@@H](CCC(N)=O)C(=O)N[C@@H](CCC(N)=O)C(=O)N[C@@H](CC(=O)O)C(=O)N[C@@H](Cc1ccccc1)C(=O)N[C@H](C(=O)N[C@@H](CC(N)=O)C(=O)N[C@@H](Cc1c[nH]c2ccccc12)C(=O)N[C@@H](CC(C)C)C(=O)N[C@@H](CC(C)C)C(=O)N[C@@H](C)C(=O)N[C@@H](CCC(N)=O)C(=O)N[C@@H](CCCCN)C(=O)N1CCC[C@H]1C(=O)N[C@@H](CO)C(=O)N[C@@H](CO)C(=O)NCC(=O)N[C@@H](C)C(=O)N1CCC[C@H]1C(=O)N1CCC[C@H]1C(=O)N1CCC[C@H]1C(=O)N[C@@H](CO)C(=O)O)C(C)C)[C@@H](C)CC
B2: AT640 (peptide)
peptide: [Aib]ETFISDYSIAMDKIK(C16 diacid)QQDFVNWLLAQKPSSGAPPPS-OH
modifications: N-terminus assumed
SMILES: CC[C@H](C)[C@H](NC(=O)[C@H](CO)NC(=O)[C@H](Cc1ccc(O)cc1)NC(=O)[C@H](CC(=O)O)NC(=O)[C@H](CO)NC(=O)[C@@H](NC(=O)[C@H](Cc1ccccc1)NC(=O)[C@@H](NC(=O)[C@H](CCC(=O)O)NC(=O)C(C)(C)N)[C@@H](C)O)[C@@H](C)CC)C(=O)N[C@@H](C)C(=O)N[C@@H](CCSC)C(=O)N[C@@H](CC(=O)O)C(=O)N[C@@H](CCCCN)C(=O)N[C@H](C(=O)N[C@@H](CCCCNC(=O)CCCCCCCCCCCCCCC(=O)O)C(=O)N[C@@H](CCC(N)=O)C(=O)N[C@@H](CCC(N)=O)C(=O)N[C@@H](CC(=O)O)C(=O)N[C@@H](Cc1ccccc1)C(=O)N[C@H](C(=O)N[C@@H](CC(N)=O)C(=O)N[C@@H](Cc1c[nH]c2ccccc12)C(=O)N[C@@H](CC(C)C)C(=O)N[C@@H](CC(C)C)C(=O)N[C@@H](C)C(=O)N[C@@H](CCC(N)=O)C(=O)N[C@@H](CCCCN)C(=O)N1CCC[C@H]1C(=O)N[C@@H](CO)C(=O)N[C@@H](CO)C(=O)NCC(=O)N[C@@H](C)C(=O)N1CCC[C@H]1C(=O)N1CCC[C@H]1C(=O)N1CCC[C@H]1C(=O)N[C@@H](CO)C(=O)O)C(C)C)[C@@H](C)CC
B3: AT637 (peptide)
peptide: [Aib]GTFISDYSIAMDKIK(C16 diacid)QQDFVNWLLAQKPSSGAPPPS-OH
modifications: N-terminus assumed
SMILES: CC[C@H](C)[C@H](NC(=O)[C@H](CO)NC(=O)[C@H](Cc1ccc(O)cc1)NC(=O)[C@H](CC(=O)O)NC(=O)[C@H](CO)NC(=O)[C@@H](NC(=O)[C@H](Cc1ccccc1)NC(=O)[C@@H](NC(=O)CNC(=O)C(C)(C)N)[C@@H](C)O)[C@@H](C)CC)C(=O)N[C@@H](C)C(=O)N[C@@H](CCSC)C(=O)N[C@@H](CC(=O)O)C(=O)N[C@@H](CCCCN)C(=O)N[C@H](C(=O)N[C@@H](CCCCNC(=O)CCCCCCCCCCCCCCC(=O)O)C(=O)N[C@@H](CCC(N)=O)C(=O)N[C@@H](CCC(N)=O)C(=O)N[C@@H](CC(=O)O)C(=O)N[C@@H](Cc1ccccc1)C(=O)N[C@H](C(=O)N[C@@H](CC(N)=O)C(=O)N[C@@H](Cc1c[nH]c2ccccc12)C(=O)N[C@@H](CC(C)C)C(=O)N[C@@H](CC(C)C)C(=O)N[C@@H](C)C(=O)N[C@@H](CCC(N)=O)C(=O)N[C@@H](CCCCN)C(=O)N1CCC[C@H]1C(=O)N[C@@H](CO)C(=O)N[C@@H](CO)C(=O)NCC(=O)N[C@@H](C)C(=O)N1CCC[C@H]1C(=O)N1CCC[C@H]1C(=O)N1CCC[C@H]1C(=O)N[C@@H](CO)C(=O)O)C(C)C)[C@@H](C)CC
B4: AT638 (peptide)
peptide: PGTFISDYSIAMDKIK(C16 diacid)QQDFVNWLLAQKPSSGAPPPS-OH
modifications: N-terminus assumed
SMILES: CC[C@H](C)[C@H](NC(=O)[C@H](CO)NC(=O)[C@H](Cc1ccc(O)cc1)NC(=O)[C@H](CC(=O)O)NC(=O)[C@H](CO)NC(=O)[C@@H](NC(=O)[C@H](Cc1ccccc1)NC(=O)[C@@H](NC(=O)CNC(=O)[C@@H]1CCCN1)[C@@H](C)O)[C@@H](C)CC)C(=O)N[C@@H](C)C(=O)N[C@@H](CCSC)C(=O)N[C@@H](CC(=O)O)C(=O)N[C@@H](CCCCN)C(=O)N[C@H](C(=O)N[C@@H](CCCCNC(=O)CCCCCCCCCCCCCCC(=O)O)C(=O)N[C@@H](CCC(N)=O)C(=O)N[C@@H](CCC(N)=O)C(=O)N[C@@H](CC(=O)O)C(=O)N[C@@H](Cc1ccccc1)C(=O)N[C@H](C(=O)N[C@@H](CC(N)=O)C(=O)N[C@@H](Cc1c[nH]c2ccccc12)C(=O)N[C@@H](CC(C)C)C(=O)N[C@@H](CC(C)C)C(=O)N[C@@H](C)C(=O)N[C@@H](CCC(N)=O)C(=O)N[C@@H](CCCCN)C(=O)N1CCC[C@H]1C(=O)N[C@@H](CO)C(=O)N[C@@H](CO)C(=O)NCC(=O)N[C@@H](C)C(=O)N1CCC[C@H]1C(=O)N1CCC[C@H]1C(=O)N1CCC[C@H]1C(=O)N[C@@H](CO)C(=O)O)C(C)C)[C@@H](C)CC
B5: AT636 (peptide)
peptide: VGTFISDYSIAMDKIK(C16 diacid)QQDFVNWLLAQKPSSGAPPPS-OH
modifications: N-terminus assumed
SMILES: CC[C@H](C)[C@H](NC(=O)[C@H](CO)NC(=O)[C@H](Cc1ccc(O)cc1)NC(=O)[C@H](CC(=O)O)NC(=O)[C@H](CO)NC(=O)[C@@H](NC(=O)[C@H](Cc1ccccc1)NC(=O)[C@@H](NC(=O)CNC(=O)[C@@H](N)C(C)C)[C@@H](C)O)[C@@H](C)CC)C(=O)N[C@@H](C)C(=O)N[C@@H](CCSC)C(=O)N[C@@H](CC(=O)O)C(=O)N[C@@H](CCCCN)C(=O)N[C@H](C(=O)N[C@@H](CCCCNC(=O)CCCCCCCCCCCCCCC(=O)O)C(=O)N[C@@H](CCC(N)=O)C(=O)N[C@@H](CCC(N)=O)C(=O)N[C@@H](CC(=O)O)C(=O)N[C@@H](Cc1ccccc1)C(=O)N[C@H](C(=O)N[C@@H](CC(N)=O)C(=O)N[C@@H](Cc1c[nH]c2ccccc12)C(=O)N[C@@H](CC(C)C)C(=O)N[C@@H](CC(C)C)C(=O)N[C@@H](C)C(=O)N[C@@H](CCC(N)=O)C(=O)N[C@@H](CCCCN)C(=O)N1CCC[C@H]1C(=O)N[C@@H](CO)C(=O)N[C@@H](CO)C(=O)NCC(=O)N[C@@H](C)C(=O)N1CCC[C@H]1C(=O)N1CCC[C@H]1C(=O)N1CCC[C@H]1C(=O)N[C@@H](CO)C(=O)O)C(C)C)[C@@H](C)CC
B6: AT635 (peptide)
peptide: Ac-EGTFISEYSIAMEKIK(C16 diacid)QQDFVNWLLAQKPSSGAPPPS-OH
SMILES: CC[C@H](C)[C@H](NC(=O)[C@H](CO)NC(=O)[C@H](Cc1ccc(O)cc1)NC(=O)[C@H](CCC(=O)O)NC(=O)[C@H](CO)NC(=O)[C@@H](NC(=O)[C@H](Cc1ccccc1)NC(=O)[C@@H](NC(=O)CNC(=O)[C@H](CCC(=O)O)NC(C)=O)[C@@H](C)O)[C@@H](C)CC)C(=O)N[C@@H](C)C(=O)N[C@@H](CCSC)C(=O)N[C@@H](CCC(=O)O)C(=O)N[C@@H](CCCCN)C(=O)N[C@H](C(=O)N[C@@H](CCCCNC(=O)CCCCCCCCCCCCCCC(=O)O)C(=O)N[C@@H](CCC(N)=O)C(=O)N[C@@H](CCC(N)=O)C(=O)N[C@@H](CC(=O)O)C(=O)N[C@@H](Cc1ccccc1)C(=O)N[C@H](C(=O)N[C@@H](CC(N)=O)C(=O)N[C@@H](Cc1c[nH]c2ccccc12)C(=O)N[C@@H](CC(C)C)C(=O)N[C@@H](CC(C)C)C(=O)N[C@@H](C)C(=O)N[C@@H](CCC(N)=O)C(=O)N[C@@H](CCCCN)C(=O)N1CCC[C@H]1C(=O)N[C@@H](CO)C(=O)N[C@@H](CO)C(=O)NCC(=O)N[C@@H](C)C(=O)N1CCC[C@H]1C(=O)N1CCC[C@H]1C(=O)N1CCC[C@H]1C(=O)N[C@@H](CO)C(=O)O)C(C)C)[C@@H](C)CC

molecular target: T1, human GIP receptor; experiment: cell-based or functional assay

Binder | cAMP agonism % Emax [%] | cAMP antagonism [nM] | cAMP antagonism % inhib [%] | cAMP antagonism pIC50
B1 | 0 | 66.8 | 100 | 7.2
B2 | 0 | 7.08 | 90 | 8.2
B3 | 0 | 2.23 | 89 | 8.7
B4 | 0 | 14.7 | 85 | 7.8
B5 | 0 | 1.71 | 87 | 8.8
B6 | 5 | 1.12 | 87 | 9
